Patent publication US20260234276A1 (DOMAIN THERAPEUTICS, published 2026)
“And” between values parts separate entries of the source, which are not always exact repeats. Equal values may be shown once.

Key:
pm3 = pm3 (human, sulfated tyrosine at Y17); experiment: ELISA on coated peptide [cont.]
How it was run: (§1)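 Anti-CCR8 mAbs tested at 1 μg/mL and then diluted 1/10 on CCR8-related peptides coated at 500 ng/mL in carbonate/bicarbonate buffer, 90 min at room temperature. Bound antibody developed with TMB for 15 min; optical density read as mAb reactivity.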

pm6 = pm6 (human, sulfated tyrosines at Y16 and Y17); experiment: ELISA on coated peptide [cont.]
pm6 (human, sulfated tyrosines at Y16 and Y17), sequence (peptide, as listed by the source): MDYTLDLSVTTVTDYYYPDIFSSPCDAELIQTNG
How it was run: as §1

pm5 = pm5 (human, sulfated tyrosines at Y15 and Y17); experiment: ELISA on coated peptide [cont.]
pm5 (human, sulfated tyrosines at Y15 and Y17), sequence (peptide, as listed by the source): as above
How it was run: as §1

pm8 = pm8 (human, sulfated tyrosines at Y15, Y16 and Y17); experiment: ELISA on coated peptide [cont.]
pm8 (human, sulfated tyrosines at Y15, Y16 and Y17), sequence (peptide, as listed by the source): as above
How it was run: as §1

human CCR8 [1] = biological target: T1, human CCR8 (human, UniProt P51685 1-355); experiment: flow cytometry, hCCR8 transfected CHOK1 cells
T1 construct: the cells are named under assay; also called hCCR8

human CCR8 [2] = biological target: T1, human CCR8; experiment: cell-based or functional assay
human CCR8 [3] = biological target: T1, human CCR8; experiment: competition flow cytometry on hCCR8 transfected CHO cells; blocked ligand CCL1-AF647 [cont.]
human CCR8 [4] = biological target: T1, human CCR8; experiment: cell-based or functional assay; remark: listed apart in the source
human CCR8 [5] = biological target: T1, human CCR8; experiment: cell-based or functional assay; remark: listed apart in the source
human CCR8 [6] = biological target: T1, human CCR8; experiment: flow cytometry, human activated T cells pre-incubated with 200 nM hCCL1
Method: (§2) Briefly, 1·10⁵ cells per well in a 96 well plate were incubated with a dilution of unconjugated anti-CCR8 mAb at 10 μg/mL then diluted at 1/3.33, 4 dilution points (during 30 min at 4° C.). […] To determine EC50 value, 8 concentrations of anti-CCR8 mAb were tested. Unbound antibodies were washed away with PBS (Invitrogen by Thermofisher Scientific, Illkirch-Graffenstaden, France) supplemented by 2% Fetal Bovine Serum (Invitrogen by Thermofisher Scientific, Illkirch-Graffenstaden, France) and 2 mM EDTA (Invitrogen by Thermofisher Scientific, Illkirch-Graffenstaden, France). Subsequently, cells are centrifuged (5 min at 400 g) and bound antibody is detected with F(ab′)₂-Goat anti-Mouse IgG (H+L) Cross-Adsorbed Secondary Antibody, Alexa Fluor 488 (dilution 1/500) (Invitrogen by Thermofisher Scientific, Illkirch-Graffenstaden, France) or with F(ab′)₂-Goat anti-Human IgG Fc Secondary Antibody, PE (Invitrogen by Thermofisher Scientific, Illkirch-Graffenstaden, France) (dilution 1/1000) at 4° C. for 30 min. Detection reagent is washed away and cells are centrifuged (5 min at 400 g) and resuspended in 30 μL PBS. Bound detection antibody is quantified on a MacsQuant16 (Miltenyi, Gladbach, Germany) (B1 or B2 channel, 5000 events per acquisition).
(§3) Binding characteristics of anti-CCR8 mAb cellular reactivity was further investigated by testing their binding to activated T cells.

human CCR8 [7] = biological target: T1, human CCR8; experiment: competition HTRF on HEK-293 cells with hCCR8; blocked ligand CCL1-AF647 [cont.]
CCR8 SNAP-tag = CCR8 SNAP-tag (human, UniProt P51685 1-355, SNAP-tag labelled with Lumi4-Terbium); experiment: cell-based or functional assay
human CCR8 [8] = biological target: T1, human CCR8; experiment: flow cytometry, HUT78 cells (native CCR8)
Method: The same staining protocol was applied on human CCR8 transfected CHO cell line versus wild type CHO cell line, cutaneous T cell lymphoma HUT78 cell line and human activated T cell model.
as §2

human CCR8 [9] = biological target: T1, human CCR8; experiment: flow cytometry, human activated T cells
Method: as §2, §3

pm4 [10] = biological target: T2, pm4 (human, sulfated tyrosine(s) among Tyr 15, Tyr 16, Tyr 17; marked only by underlining, lost in the text); experiment: ELISA on coated peptide
T2 sequence (peptide, as listed by the source): as above
Method: (§4) The specific binding properties of antibodies were evaluated by ELISA with coated CCR8 related peptides (500 ng/mL) in carbonate/bicarbonate buffer. Different peptides were used as described in Table 1 (see Example 1). Each anti-CCR8 mAb was tested at 1 μg/mL then diluted at 1/10. After an incubation at room temperature during 90 min, unbound mAbs were removed by washings. […] After washings, 3,3′,5,5′-tetramethylbenzidine (TMB) (Interchim, Montlugon, France) was added for 15 min. Then the optical density (OD) was determined by using a multiplate reader (Tecan, Lyon, France) and correlated with mAb reactivity on the panel of coated peptides.

pm1 [11] = biological target: T3, pm1 (human, sulfated tyrosine(s) among Tyr 15, Tyr 16, Tyr 17; marked only by underlining, lost in the text); experiment: ELISA on coated peptide
T3 sequence (peptide, as listed by the source): as above
Method: as §4

pm2 = pm2 (human, sulfated tyrosine(s) among Tyr 15, Tyr 16, Tyr 17; marked only by underlining, lost in the text); experiment: ELISA on coated peptide [cont.]
pm2 (human, sulfated tyrosine(s) among Tyr 15, Tyr 16, Tyr 17; marked only by underlining, lost in the text), sequence (peptide, as listed by the source): as above
How it was run: as §1

pm4 [12] = biological target: T2, pm4; experiment: ELISA on coated peptide [cont.]
How it was run: as §1

pwt1 = biological target: T4, pwt1 (human); experiment: ELISA on coated peptide [cont.]
T4 construct: also called unmodified peptide
T4 sequence (peptide, as listed by the source): as above
How it was run: as §1

pm1 [13] = biological target: T3, pm1; experiment: ELISA on coated peptide [cont.]
How it was run: as §1

pm3 (human, sulfated tyrosine at Y17), sequence (peptide, as listed by the source): as above

B1: 3-43 (antibody, V domains shown)
VH: QVQLQQPGAELVKPGASVKMSCKATGYTFTGYNMHWVKQTPGQGLEWIGAISPGKGDTSYNLKFKGKATLTTDKSSSTAYMQLSSLTSADSAVYYCARSGGTPFAYWGQGTLVTVSA
VL: DVVMTQTPLSLPVSLGDQASISCRSSQSLVHSNGDTYLYWYLQKPGQSPKLLIYKVSNRFSGVPDRFSGSGSGTDFTLKINRVEAEDLGVYFCSQSTHVPYTFGGGTKLEIK
pm3
  binding result: binds
pm6
  binding result: binds
pm5
  binding result: binds
pm8
  binding result: binds
Human CCR8 [1]
  % positive cells: 76.2%
  MFI fold change to isotype ctrl: 8.37 fold
Human CCR8 [2]
  IC50 (Gi2 BRET, pH 6.5): 0.678 µg/ml and 4.52 nM
  IC50 (Gi2 BRET, pH 7.4): 3.43 µg/ml and 22.9 nM
Human CCR8 [3]
  IC50 (read off the curve): ~0.7 µg/mL
Human CCR8 [4]
  Top plateau value (% of hCCL1 100 nM) with 5 µg/mL mAb, Protocol #3: 2880%
Human CCR8 [5]
  hCCL1 (100 nM) residual response, Protocol #3, mAb 0.05 µg/mL: 102%
  hCCL1 (100 nM) residual response, Protocol #3, mAb 0.5 µg/mL: 98%
  hCCL1 (100 nM) residual response, Protocol #3, mAb 5 µg/mL: 84%

B2: 3-46 (antibody, V domains shown)
VH: EVQLVETGGGLVQPKGSLKLSCAASGFTFNTNAMNWVRQAPGKGLEWVARIRSKSNYYATYYADSVKDRFTISRDDSQSMLYLQMNNLKTEDTAMYYCVRGREMGNYYSMDYWGQGTSVTVSS
VL: DIVMTQAAPSVPVTPGESVSISCRSSKSLLHSNGNTYLYWFLQRPGQSPQLLIYRMSNLASGVPDRFSGSGSGTAFTLRISRVEAEDVGVYYCMQHLEYPFTFGSGTKLEIK
pm3
  binding result: binds
pm6
  binding result: binds
pm5
  binding result: binds
pm8
  binding result: binds
Human CCR8 [1]
  % positive cells: 64.7%
  MFI fold change to isotype ctrl: 5.63 fold
Human CCR8 [2]
  IC50 (Gi2 BRET, pH 6.5): 0.019 µg/ml and 0.125 nM
  IC50 (Gi2 BRET, pH 7.4): 0.011 µg/ml and 0.075 nM
Human CCR8 [3]
  IC50 (read off the curve): ~0.3 µg/mL
Human CCR8 [4]
  Top plateau value (% of hCCL1 100 nM) with 5 µg/mL mAb, Protocol #3: 149%
Human CCR8 [5]
  hCCL1 (100 nM) residual response, Protocol #2, mAb 0.08 µg/mL: 60%
  hCCL1 (100 nM) residual response, Protocol #2, mAb 0.4 µg/mL: 35%
  hCCL1 (100 nM) residual response, Protocol #2, mAb 10 µg/mL: 21%
  hCCL1 (100 nM) residual response, Protocol #3, mAb 0.05 µg/mL: 69%
  hCCL1 (100 nM) residual response, Protocol #3, mAb 0.5 µg/mL: 39%
  hCCL1 (100 nM) residual response, Protocol #3, mAb 5 µg/mL: 38%

B3: 3-79 (antibody, human IgG1, kappa, V domains shown)
VH: EVQLLESGGGLVQPGGSLRLSCAASGFTFNAYAMNWVRQAPGKGLEWVARIRSKSNDYATYYGDSVKGRFTISRDNSKNTLYLQMNSLRAEDTAVYYCVRGREAYYRYDGGYYAMDVWGQGTTVTVSS
VL: DIVMTQSPLSLPVTPGEPASISCRSSKSLLHSNGNTYLYWFLQKPGQSPQLLIYRVSNLASGVPDRFSGSGSGTDFTLKISRVEAEDVGVYYCMQHREYPFTFGQGTKLEIKR
notes: humanized, human IgG1 kappa
Human CCR8 [6]
  % of labelled cells: 92%
pm3
  binding result: binds
pm6
  binding result: binds
pm5
  binding result: binds
pm8
  binding result: binds
Human CCR8 [7]
  IC50 (read off the curve): ~0.2 µg/mL
CCR8 SNAP-tag
  % of internalization at 1 µg/ml mAb (HTRF): 139%
  % of internalization at 10 µg/ml mAb (HTRF): 52%
Human CCR8 [2]
  IC50 (Gi2 BRET, pH 6.5): 0.077 µg/ml and 0.514 nM
  IC50 (Gi2 BRET, pH 7.4): 0.068 µg/ml and 0.452 nM
Human CCR8 [8]
  % of labelled cells: 97%
Human CCR8 [9]
  % of labelled cells: 92%
Human CCR8 [5]
  hCCL1 (100 nM) residual response, Protocol #2, mAb 0.08 µg/mL: 94%
  hCCL1 (100 nM) residual response, Protocol #2, mAb 0.4 µg/mL: 77%
  hCCL1 (100 nM) residual response, Protocol #2, mAb 10 µg/mL: 31%
  hCCL1 (100 nM) residual response, Protocol #3, mAb 0.05 µg/mL: 110%
  hCCL1 (100 nM) residual response, Protocol #3, mAb 0.5 µg/mL: 76%
  hCCL1 (100 nM) residual response, Protocol #3, mAb 5 µg/mL: 33%
pm4 [10]
  binding result: binds
pm1 [11]
  binding result: binds

B4: 3-81 (antibody, human IgG1, kappa, V domains shown)
VH: QVQLQQSGPEVVKPGASVKVSCKTSGYTFTEYTIHWVRQSHGQSLEWVGGINPNNGNTRYDQKFKGRVTITIDKSSSTAYMELRSLTSEDTAVYYCARVARSSGSGPYAMDYWGQGTTVTVSS
VL: DVVMTQSPLSLPVTLGDQASISCRCSQSLLHTNGDTYLHWYLQRPGQSPRLLIYKVSNRFSGVPDRFSGSGSGTDFTLKISRVEAEDVGVYFCSQSTHVPYTFGGGTKVEIKR
notes: humanized, human IgG1 kappa
pm2
  binding result: binds
pm4 [12]
  binding result: binds
pm3
  binding result: binds
pm6
  binding result: binds
pwt1
  binding result: binds
pm1 [13]
  binding result: binds
pm5
  binding result: binds
pm8
  binding result: binds
CCR8 SNAP-tag
  % of internalization at 1 µg/ml mAb (HTRF): 44%
  % of internalization at 10 µg/ml mAb (HTRF): 36%
Human CCR8 [2]
  IC50 (Gi2 BRET, pH 6.5): 0.018 µg/ml and 0.117 nM
  IC50 (Gi2 BRET, pH 7.4): 0.034 µg/ml and 0.224 nM
Human CCR8 [8]
  % of labelled cells: 88%
  EC50: 0.2 nM
Human CCR8 [5]
  hCCL1 (100 nM) residual response, Protocol #2, mAb 0.08 µg/mL: 77%
  hCCL1 (100 nM) residual response, Protocol #2, mAb 0.4 µg/mL: 66%
  hCCL1 (100 nM) residual response, Protocol #2, mAb 10 µg/mL: 41%
  hCCL1 (100 nM) residual response, Protocol #3, mAb 0.05 µg/mL: 73%
  hCCL1 (100 nM) residual response, Protocol #3, mAb 0.5 µg/mL: 52%
  hCCL1 (100 nM) residual response, Protocol #3, mAb 5 µg/mL: 37%
